Values of other authors as cited in paper PMC4454200.

Target: Myosin-5a GTD (Mus musculus) (UniProt Q99104)
Sequence (Q99104 1469-1853): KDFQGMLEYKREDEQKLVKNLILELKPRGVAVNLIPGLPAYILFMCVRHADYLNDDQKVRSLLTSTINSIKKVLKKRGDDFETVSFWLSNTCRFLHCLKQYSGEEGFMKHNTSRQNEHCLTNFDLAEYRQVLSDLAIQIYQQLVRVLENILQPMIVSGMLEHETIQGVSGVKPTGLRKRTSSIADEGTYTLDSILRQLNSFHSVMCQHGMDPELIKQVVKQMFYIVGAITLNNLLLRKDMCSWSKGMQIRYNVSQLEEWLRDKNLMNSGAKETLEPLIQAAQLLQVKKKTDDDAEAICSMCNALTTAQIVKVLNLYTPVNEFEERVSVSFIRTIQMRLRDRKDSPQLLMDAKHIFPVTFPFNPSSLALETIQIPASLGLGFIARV

Sequence of Melanophilin GTBDP (Q91V27 176-201): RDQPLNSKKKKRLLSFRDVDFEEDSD

Which Kd does the source give for “Melanophilin GTBDP (from UniProt Q91V27)” here?
The Kd was 500 nM.
